Target: Axl receptor tyrosine kinase, wildtype (human)
Test: co-IP

fold Grb2 co-IP'ed with Axl, rhGas6 stimulation against no stimulation: 2 fold
Substance: endogenous growth factor receptor-bound protein 2 (Grb2) of COS7 cells (natural protein)
